Measurements: PMC7027753, “Interaction of N‐acetyl‐L‐glutamate kinase with the PII signal transducer in the non‐photosynthetic alga Polytomella parva: Co‐evolution towards a hetero‐oligomeric enzyme” (The Febs Journal, 2019)

Legend:
CrNAGK = target: T1, CrNAGK (Chlamydomonas reinhardtii, UniProt A8HPI1); assay: coupled pyruvate kinase / lactate dehydrogenase NADH assay, […] nm; assay type: biochemical
T1 construct: gene CHLRE_01g015000v5; N-terminal His6 tag, E. coli LEMO-21(DE3), Ni-NTA; hexamer
T1 sequence (A8HPI1 44-340): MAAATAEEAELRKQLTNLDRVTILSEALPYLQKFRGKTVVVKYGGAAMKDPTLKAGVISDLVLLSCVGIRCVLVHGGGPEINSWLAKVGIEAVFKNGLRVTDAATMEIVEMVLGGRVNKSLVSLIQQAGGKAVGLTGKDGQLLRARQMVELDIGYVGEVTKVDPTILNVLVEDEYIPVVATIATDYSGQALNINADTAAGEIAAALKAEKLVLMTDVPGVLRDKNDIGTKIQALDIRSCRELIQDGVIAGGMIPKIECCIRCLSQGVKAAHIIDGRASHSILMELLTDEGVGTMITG

CrPII-CrNAGK = target: T2, CrPII-CrNAGK (Chlamydomonas reinhardtii, UniProt A8HPI1); assay: as above; assay type: biochemical; conditions: read-out: Arg-IC50
T2 construct: gene CHLRE_01g015000v5; His6-CrNAGK and CrPII with C-terminal Strep tag, mixed equimolar; E. coli expressed; with Nitrogen regulatory protein P-II, chloroplastic (PII signal transducer)

CrPII-PpaNAGK complex = target: T3, CrPII-PpaNAGK complex (Polytomella parva, UniProt A0A2K3DLS9+A6XGV3); assay: as above; assay type: biochemical
T3 construct: heterologous two-species complex, mixed equimolar: His6-PpaNAGK from residue 41 and CrPII with C-terminal Strep tag; NAGK holds arginine, PII holds 2-oxoglutarate

PpaPII-CrNAGK complex [1] = target: T4, PpaPII-CrNAGK complex; assay: as above; assay type: biochemical, Chlamydomonas reinhardtii (NAGK); Polytomella parva (PII); conditions: 50 mM NAG, 5 mM ATP, 20 mM MgCl2, pH 7.5; with PpaPII, no Gln; allosteric site of NAGK; unit implied in the sentence
T4 construct: gene NAGK; heterologous two-species complex, mixed equimolar: His6-CrNAGK and PpaPII from residue 50 with C-terminal Strep tag; NAGK holds arginine, PII holds glutamine

PpaPII-CrNAGK complex [2] = target: T4, PpaPII-CrNAGK complex; assay: as above; assay type: biochemical, Chlamydomonas reinhardtii (NAGK); Polytomella parva (PII); conditions: activation of complex inhibited by 0.12 mM arginine; 50 mM NAG, 5 mM ATP, pH 7.5; Gln site in PII Q-loop, allosteric
[3] = target: Chlamydomonas reinhardtii NAGK protein (Chlamydomonas reinhardtii); assay: SEC-MALS; Superose 6 Increase 10/300 GL; 10 mM Tris pH 7.8, 300 mM NaCl, 2 mM MgCl2, 0.02% NaN3, 2% glycerol; proteins alone or PII mixed in excess with NAGK (4 : 1 monomeric concentrations), with or without 5 mM glutamine; fractions checked by SDS/PAGE
[4] = target: Chlamydomonas reinhardtii NAGK protein (Chlamydomonas reinhardtii); assay: SPR; His6-NAGK immobilised on a Ni2+-loaded NTA chip (FC2), strep-tagged PII injected as analyte (50-1000 nM), 25 °C, HBS (10 mM HEPES, 150 mM NaCl, 2 mM MgCl2, 0.005% NP-40, pH 7.5), FC2-FC1; without effector molecules; Kd estimated from ΔRU
[5] = target: Polytomella parva N-acetyl-L-glutamate kinase (Polytomella parva) (UniProt A6XGV3); assay: as above
[6] = target: Polytomella parva PII protein (Polytomella parva); assay: SEC-MALS; Superose 6 Increase 10/300 GL; 10 mM Tris pH 7.8, 300 mM NaCl, 2 mM MgCl2, 0.02% NaN3, 2% glycerol; proteins alone or PII mixed in excess with NAGK (4 : 1 monomeric concentrations), with or without 5 mM glutamine; fractions checked by SDS/PAGE
purified protein = substrate: CC(=O)N[C@@H](CCC(=O)O)C(=O)O; assay: purified protein; assay type: biochemical, Polytomella parva; conditions: 5 mM ATP, 20 mM MgCl2, 50 mM KCl, 50 mM imidazole pH 7.5, no arginine, no PII
[7] = target: the molecule itself; assay: SEC-MALS; Superose 6 Increase 10/300 GL; 10 mM Tris pH 7.8, 300 mM NaCl, 2 mM MgCl2, 0.02% NaN3, 2% glycerol; proteins alone or PII mixed in excess with NAGK (4 : 1 monomeric concentrations), with or without 5 mM glutamine; fractions checked by SDS/PAGE

T3 sequence (A0A2K3DLS9 63-205, one chain of several): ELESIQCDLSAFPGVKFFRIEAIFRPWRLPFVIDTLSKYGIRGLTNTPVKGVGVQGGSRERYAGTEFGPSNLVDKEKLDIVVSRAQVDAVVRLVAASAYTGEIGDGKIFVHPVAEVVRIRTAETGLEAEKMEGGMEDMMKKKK

Molecule: N=C(N)NCCC[C@H](N)C(=O)O [arginine]
- IC50 (CrNAGK): 120 ± 30 µM
- IC50 (CrPII-CrNAGK): 250 ± 10 µM
- IC50 (CrPII-PpaNAGK complex): 680 ± 150 µM
- IC50 (PpaPII-CrNAGK complex [1]): 70 ± 10 µM

Molecule: NC(=O)CC[C@H](N)C(=O)O [glutamine]
- EC50 (PpaPII-CrNAGK complex [2]): 1100 µM

Molecule: Chlamydomonas reinhardtii NAGK protein (enzyme)
- stoichiometry N [3]: 6

Molecule: Polytomella parva PII protein (natural protein)
- Kd [4]: 0.0863 µM
- Kd [5]: 0.0938 µM
- percent of PpaPII-PpaNAGK complex dissociation from the sensor chip at 330 sec after the end of the injection phase (RU at 110 sec taken as 100%) [5]: 60.7%
- percent of PpaPII-PpaNAGK complex dissociation from the sensor chip at 660 sec after the end of the injection phase (RU at 110 sec taken as 100%) [5]: 41.9%
- stoichiometry N [6]: 3

B1: Polytomella parva N-acetyl-L-glutamate kinase (enzyme, UniProt A6XGV3 41-329, looked up)
chain: TSDKKELTNLDRVTILSEALPYLQKFRGKTIVIKYGGAAMKDPTLKAGVITDLVLLNCVGIRTVLVHGGGPEINSWLSKVGIKPNFKNGLRVTDSATMDIVEMVLGGRVNKSLVSLIQQAGGRGVGLTGKDGQLLKARQMTELDIGHVGEVTKVDPTILNVMVNDGYIPVVATIASDPAGQALNINADTAAGEIAAALKAKKLVLMTDVPGVLRDKNDIKTKIHSLDIRGCRELIKDGIIAGGMIPKIECCIRCLAQGVDAAHIVDGRAKHSILMELLTDEGVGTMITG
notes: the full-length polypeptide has 329 amino acids; The discussion gives the transit peptide as 1-21, the results and methods as 1-40; also called PpaNAGK; NAGK; not shown: His6, N-terminal, kept
- Km (purified protein): 2350 ± 220 µM
- kcat (purified protein): 211.5 ± 4.1 s⁻¹
- stoichiometry N [7]: 6
